Measured values published in the Human Domainome abundance scans (Beltran et al. 2025).

B1: Homeobox expressed in ES cells 1, residues 110 to 165; numbered along this chain, Q9UBX0 (parent)
chain: RPRTAFTQNQIEVLENVFRVNCYPGIDIREDLAQKLNLEEDRIQIWFQNRRAKLKR

Variants of: B1
Assay: abundance fitness (aPCA) (normalised: wild type 0, dead -1); higher = more abundant; growth selection in yeast, the domain comes from the species named
Conditions: Homo sapiens

Abundance fitness: each site, then its substitutions
E15: L -0.725, V -0.81, P -0.499, T -0.741, G -0.686, Y -0.528, S -0.854, D -0.621, A -0.832, R -0.503, M -0.196, H -0.463, C -0.567
Y23: S -0.04, D -0.23, A 0.05, M -0.44, K -0.262, V -0.546, N 0.114, C 0.05, L -0.338, Q -0.251, T -0.137, W -0.063, F -0.411, R -0.381
C22: W -0.066, R 0.054, V -0.392, P 0.079, L -0.134, D -0.021, E 0.227, Q 0.156, S 0.187, T -0.013, M 0.425, A -0.061, F -0.467, K -0.328, G -0.182, I 0.076, Y 0.009
P24: K 0.273, M -0.815, C -1.09, V -0.793, G -0.641, I -0.662, D -0.606, Q -0.314, Y -0.366, E -0.644, R -0.995, W -0.896, L -0.392
E30: V -0.186, A -0.023, W -0.002, K 0.169, N 0.514, D -0.18, M -0.189, I 0.099, P -0.781, L 0.134, R 0.196, Y -0.544, F 0.048, S -0.209, C -0.063, H 0.234, G -0.131
L14: T -0.463, A -1.02, K -0.519, N -0.506, W -0.625, E -0.87, M -0.267, R -0.77, I -0.298, G -0.88
D27: G -0.02, S 0.233, V -0.314, W -0.526, R 0.137, H -0.503, N 0.034, C -0.155, A -0.259, I -0.484, P -0.128, Q 0.203, E 0.075, M -0.134, L -0.271, K -0.185
V20: A -0.052, H -0.021, E -0.1, L -0.186, I 0.077, M -0.091, S 0.072, C -0.218, D 0.136, Y -0.667, W -0.436, F 0.333, G -0.157, N 0.208, T -0.03, K 0.106, R -0.118
Q34: S -0.197, T 0.046, H -0.129, I -0.106, Y -0.347, E -0.076, G -0.168, A -0.423, K -0.119, R 0.135, L -0.157, N -0.216, D -0.234
R19: S -0.334, K -0.105, G -0.452, F -0.467, H -0.46, M -0.529, T -0.01, W -0.64, I -0.327, V -0.142, Y -0.614, E -0.291, Q -0.187, C -0.354
D31: P -0.675, V -0.425, C -0.468, K 0.679, R -0.032, F 0.535, I 0.221, W -0.532, Y -0.158, M -0.32, L -0.411, N 0.066, T -0.568, A -0.106
F18: T -0.82, R -0.71, Q -0.891, M -1.06, G -0.812, Y -0.083, I -0.328, C -0.625, L -0.459, K -0.845, D -0.701, S -0.819
I28: W -0.577, E -0.176, V 0.045, S -0.505, R -0.667, P -0.725, M -0.655, Q -0.171, K -0.852, A -0.089, C -0.534, G -0.692, Y -0.309, L -0.209
R29: Q -0.299, K -0.691, P -0.708, V 0.011, N -0.864, G -0.704, T 0.183, A -0.093, M 0.303, C -0.019, E -1.23, I -0.2, L -0.222, F -0.198, S -0.709, D -0.749, Y -0.284, W -0.18
G25: Q -0.744, H 0.151, E -0.065, S -0.106, C -0.282, A -0.079, Y -0.741, V -1.11, M -0.688, W -0.755, L -0.874, T -0.027, K 0.11, P 0.187
I26: R 0.002, E -0.19, C -0.218, F -0.08, N 0.226, Y -0.159, M -0.38, P 0.054, K 0.305, L 0.151, D -0.297, T -0.341, Q 0.013, W -0.138, A -0.057, G -0.319, S -0.078
V13: T -0.141, S -0.224, A -0.272, L -0.543, K -0.458, F -0.378, C -0.149, Y -0.757, I 0.467, D -0.757, Q -0.184, N -0.278, H 0.023, P -0.596, M 0.618
N16: V -0.701, W -0.755, F -0.962, P -1, Q -0.073, C -0.365, D -0.073, Y -0.56, S -0.02, K -0.034, M -0.215, T -0.125, L -0.561, R -0.417, E -0.114
L32: M -0.689, E -0.824, K -0.833, Q -0.487, S -0.787, A -0.832, V -0.685, F -0.757, I -0.363, R -0.886, D -0.826, P -0.884, G -0.904, W -0.386, T -0.495
A33: K -0.566, M -0.252, Q 0.36, E -0.848, S -0.124, G -0.242, I -0.703, Y -0.396, C -0.186, V -0.363, L -0.89, W -0.694
V17: T -0.151, H -0.427, S -0.335, R -0.84, W -0.923, E -0.372, K -0.552, L -0.308, F -0.562, A -0.06, Y -0.293, Q -0.359, M -0.197, I -0.091, P -0.743
E12: G -0.525, I -0.612, P -1.07, D 0.28, K 0.487, Q 0.154, L -0.236, F 0.203, T -0.009, N -0.148, S 0.016, Y -0.264, R -0.346, W -0.704, V -0.137
N21: I -0.522, S -0.454, V -0.578, Q -0.158, Y -0.592, G -0.262, R -0.948, D -0.412, L -0.807, W -0.608, F -0.868, M -0.058, A -1.03, C -0.69
